Experimental data from US10766960 (dated 2020).
Where two headings read alike, the source gives them in different places.

T1: FcgRIIb (human, UniProt P31994)
T1 chain: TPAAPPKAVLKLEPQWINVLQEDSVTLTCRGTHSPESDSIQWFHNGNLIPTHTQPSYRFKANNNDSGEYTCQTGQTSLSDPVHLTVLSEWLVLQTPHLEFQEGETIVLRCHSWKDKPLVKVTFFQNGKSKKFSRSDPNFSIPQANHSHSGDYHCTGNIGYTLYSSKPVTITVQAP

T2: FcgRIIa H (human, UniProt P12318)
T2 chain: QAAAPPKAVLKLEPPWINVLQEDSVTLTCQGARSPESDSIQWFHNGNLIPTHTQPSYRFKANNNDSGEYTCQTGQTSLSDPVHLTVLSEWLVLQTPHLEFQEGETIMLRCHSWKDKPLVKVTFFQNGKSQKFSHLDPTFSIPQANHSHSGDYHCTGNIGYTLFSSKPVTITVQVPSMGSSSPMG

T3: FcgRIa (human, UniProt P12314)
T3 chain: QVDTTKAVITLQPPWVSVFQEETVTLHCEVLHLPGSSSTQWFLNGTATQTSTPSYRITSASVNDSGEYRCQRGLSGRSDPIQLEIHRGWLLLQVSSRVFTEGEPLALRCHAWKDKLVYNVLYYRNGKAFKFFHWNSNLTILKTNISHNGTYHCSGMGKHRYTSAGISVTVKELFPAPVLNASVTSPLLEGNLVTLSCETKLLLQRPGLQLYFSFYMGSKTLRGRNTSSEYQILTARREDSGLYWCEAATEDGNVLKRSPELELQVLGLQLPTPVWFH

T4: FcgRIIa R (human, UniProt P12318)
T4 chain: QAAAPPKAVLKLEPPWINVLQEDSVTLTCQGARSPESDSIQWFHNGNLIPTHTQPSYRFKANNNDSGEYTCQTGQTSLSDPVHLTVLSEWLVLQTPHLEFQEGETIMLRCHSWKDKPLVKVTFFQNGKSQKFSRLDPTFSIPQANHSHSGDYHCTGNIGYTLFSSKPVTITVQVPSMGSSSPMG


How the values were obtained:
Test in all cases: SPR
FcgRIIb [1] = biological target: T1, FcgRIIb
FcgRIIIa F [2] = biological target: T5, FcgRIIIa F (human, UniProt P08637)
FcgRIIa H = biological target: T2, FcgRIIa H
FcgRIIb [3] = biological target: T1, FcgRIIb
FcgRIa = biological target: T3, FcgRIa
FcgRIIIa V = FcgRIIIa V (human, UniProt P08637)
FcgRIIIa F [4] = biological target: T5, FcgRIIIa F; remark: listed apart in the source
FcgRIIa R = biological target: T4, FcgRIIa R

T5 sequence (P08637 17-208): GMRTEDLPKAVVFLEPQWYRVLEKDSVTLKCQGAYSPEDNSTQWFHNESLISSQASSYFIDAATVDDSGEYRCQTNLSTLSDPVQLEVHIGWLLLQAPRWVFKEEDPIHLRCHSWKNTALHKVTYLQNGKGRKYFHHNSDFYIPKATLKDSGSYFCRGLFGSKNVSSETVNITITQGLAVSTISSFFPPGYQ
FcgRIIIa V, sequence (P08637 17-208 F176V): as the sequence (P08637 17-208) above, with F160V counted along it

Row | Binder | Kd (FcgRIIb [1]) | Kd (FcgRIIIa F [2]) | Kd (FcgRIIa H) | Kd (FcgRIIb [3]) | Kd (FcgRIa) | Kd (FcgRIIIa V) | Kd (FcgRIIIa F [4]) | Kd (FcgRIIa R)
1 | GpH7-TA7/GpH7-B3/GpL16-k0 (antibody) chain 1: QVQLVQSGAEVKKPGASVTVSCKASGYTFTDYEMHWIRQPPGEGLEWIGAIDPKTGDTAYSESFQDRVTLTADKSTSTAYMELSSLTSEDTAVYYCTRFYSYTYWGQGTLVTVSSASTKGPSVFPLAPSSKSTSGGTAALGCLVKDYFPEPVTVSWNSGALTSGVHTFPAVLQSSGLYSLSSVVTVPSSSLGTQTYICNVNHKPSNTKVDKKVEPKSCDKTHTCPPCPAPEYLWGPSVFLFPPKPKDTLMISRTPEVTCVVVDVSHEDPEVKFNWYVDGVEVHNAKTKPREEQYNATYRVVSVLTVLHQDWLNGKEYKCKVSNKALPAPIEKTISKAKGQPREPQVYTLPPSRKELTKNQVSLTCLVKGFYPSDIAVEWESNGQPENNYKTTPPVLDSDGSFFLYSKLTVDKSRWQQGNVFSCSVMHEALHNRYTQKSLSLSP chain 2: not shown chain 3: DIVMTQSPLSLPVTPGEPASISCQASESLVHSNRNTYLHWYLQKPGQSPQLLIYKVSNRFSGVPDRFSGSGSGTDFTLKISRVEAEDVGVYYCSQNTHVPPTFGQGTKVEIERTVAAPSVFIFPPSDEQLKSGTASVVCLLNNFYPREAKVQWKVDNALQSGNSQESVTEQDSKDSTYSLSSTLTLSKADYEKHKVYACEVTHQGLSSPVTKSFNRGEC | 4500 nM | 320 nM |  |  |  |  |  | 
2 | GpH7-A57/GpH7-B78/GpL16-k0 (antibody) chain 1: QVQLVQSGAEVKKPGASVTVSCKASGYTFTDYEMHWIRQPPGEGLEWIGAIDPKTGDTAYSESFQDRVTLTADKSTSTAYMELSSLTSEDTAVYYCTRFYSYTYWGQGTLVTVSSASTKGPSVFPLAPSSKSTSGGTAALGCLVKDYFPEPVTVSWNSGALTSGVHTFPAVLQSSGLYSLSSVVTVPSSSLGTQTYICNVNHKPSNTKVDKKVEPKSCDKTHTCPPCPAPELLGGPDVFLFPPKPKDTLMISRTPEVTCVVVDVSHEDPEVKFNWYVDGVEVHNAKTKPREEQYNSTYRVVSVLTVLHQDWLNGKEYKCKVSNKALPLPEEKTISKAKGQPREPQVYTLPPSRKELTKNQVSLTCLVKGFYPSDIAVEWESNGQPENNYKTTPPVLDSDGSFFLYSKLTVDKSRWQQGNVFSCSVMHEALHNRYTQKSLSLSP chain 2: QVQLVQSGAEVKKPGASVTVSCKASGYTFTDYEMHWIRQPPGEGLEWIGAIDPKTGDTAYSESFQDRVTLTADKSTSTAYMELSSLTSEDTAVYYCTRFYSYTYWGQGTLVTVSSASTKGPSVFPLAPSSKSTSGGTAALGCLVKDYFPEPVTVSWNSGALTSGVHTFPAVLQSSGLYSLSSVVTVPSSSLGTQTYICNVNHKPSNTKVDKKVEPKSCDKTHTCPPCPAPELLGGPDVFLFPPKPKDTLMISRTPEVTCVVVDVSHEDPEVKFNWYVDGVEVHNAKTKPREEQYNSTYRVVSVLTVLHQDWLNGKEYKCKVSNKALPLPEEKTISKAKGQPREPQVYTLPPSRDELTKNQVSLTCLVKGFYPSDIAVEWESNGQPENNYKTTPPVLDSDGSFFLYSKLTVDKSRWQQGNVFSCSVMHEALHNHYTQESLSLSP chain 3: DIVMTQSPLSLPVTPGEPASISCQASESLVHSNRNTYLHWYLQKPGQSPQLLIYKVSNRFSGVPDRFSGSGSGTDFTLKISRVEAEDVGVYYCSQNTHVPPTFGQGTKVEIERTVAAPSVFIFPPSDEQLKSGTASVVCLLNNFYPREAKVQWKVDNALQSGNSQESVTEQDSKDSTYSLSSTLTLSKADYEKHKVYACEVTHQGLSSPVTKSFNRGEC | 610 nM | 6.2 nM |  |  |  |  |  | 
3 | H240-Kn120/H240-Hl170/L73-k0 (antibody) chain 1: QDQLVQSGAEVKKPGASVKVSCKASGFNIKDTYIQWVRQAPGQGLEWMGRIDPLRKQTKYREKFEGRVTITADTSTNTAYMELSSLRSEDTAVYYCVRSGREFDYWGQGTLVTVSSASTKGPSVFPLAPSSKSTSGGTAALGCLVKDYFPEPVTVSWNSGALTSGVHTFPAVLQSSGLYSLSSVVTVPSSSLGTQTYICNVNHKPSNTKVDKKVEPKSCDKTHTCPPCPAPEYYWGPMVFLFPPKPKDTLMISRTPEVTCVVVDVSDEDPEVKFNWYVDGVEVHNAKTKPREEQYNATYRVVSVLTVLHQDWLNGKEYKCKVSNKDLPAPIEKTISKAKGQPREPQVCTLPPSRDELTKNQVSLWCLVKGFYPSDIAVEWESNGQPENNYKTTPPVLDSDGSFFLYSKLTVDKSRWQQGNVFSCSVMHEALHNHYTQKSLSLSP chain 2: QDQLVQSGAEVKKPGASVKVSCKASGFNIKDTYIQWVRQAPGQGLEWMGRIDPLRKQTKYREKFEGRVTITADTSTNTAYMELSSLRSEDTAVYYCVRSGREFDYWGQGTLVTVSSASTKGPSVFPLAPSSKSTSGGTAALGCLVKDYFPEPVTVSWNSGALTSGVHTFPAVLQSSGLYSLSSVVTVPSSSLGTQTYICNVNHKPSNTKVDKKVEPKSCDKTHTCPPCPAPELLGGPSVFLFPPKPKDTLMISRTPEVTCVVVDVSHEEPEVKFNWYVDGVEVHNAKTKPREEQYNSTYRVVSVLTVLHQDWLNGKEYKCKVSNDAAPKPIEETISKAKGQPREPQVYTLPPSRCELTKNQVSLSCAVKGFYPSDIAVEWESNGQPENNYKTTPPVLDSDGSFFLVSKLTVDKSRWQQGNVFSCSVMHEALHNHYTQKSLSLSP chain 3: DIQMTQSPSSLSASVGDRVTITCRASQDIHKYIAWYQQKPGQAPRLLIQYTSTLQPGVPSRFSGSGSGTDYTFTISSLQPEDIATYYCLQYEQLRTFGGGTKVEIKRTVAAPSVFIFPPSDEQLKSGTASVVCLLNNFYPREAKVQWKVDNALQSGNSQESVTEQDSKDSTYSLSSTLTLSKADYEKHKVYACEVTHQGLSSPVTKSFNRGEC |  |  | 18 nM | 67 nM | 0.19 nM | 0.93 nM | 3.9 nM | 8.6 nM
4 | H240-Kn149/H240-Hl068/L73-k0 (antibody) chain 1: QDQLVQSGAEVKKPGASVKVSCKASGFNIKDTYIQWVRQAPGQGLEWMGRIDPLRKQTKYREKFEGRVTITADTSTNTAYMELSSLRSEDTAVYYCVRSGREFDYWGQGTLVTVSSASTKGPSVFPLAPSSKSTSGGTAALGCLVKDYFPEPVTVSWNSGALTSGVHTFPAVLQSSGLYSLSSVVTVPSSSLGTQTYICNVNHKPSNTKVDKKVEPKSCDKTHTCPPCPAPEYYWGPMVFLFPPKPKDTLMISRTPEVTCVVVDVSDEDPEVKFNWYVDGVEVHNAKTKPREEQYNATYRVVSVLTVLHQDWLNGKEYKCKVSNKDWPAPIELTISKAKGQPREPQVCTLPPSRDELTKNQVSLWCLVKGFYPSDIAVEWESNGQPENNYKTTPPVLDSDGSFFLYSKLTVDKSRWQQGNVFSCSVMHEALHNHYTQKSLSLSP chain 2: QDQLVQSGAEVKKPGASVKVSCKASGFNIKDTYIQWVRQAPGQGLEWMGRIDPLRKQTKYREKFEGRVTITADTSTNTAYMELSSLRSEDTAVYYCVRSGREFDYWGQGTLVTVSSASTKGPSVFPLAPSSKSTSGGTAALGCLVKDYFPEPVTVSWNSGALTSGVHTFPAVLQSSGLYSLSSVVTVPSSSLGTQTYICNVNHKPSNTKVDKKVEPKSCDKTHTCPPCPAPELLGGPSVFLFPPKPKDTLMISRTPEVTCVVVDVSHEEPEVKFNWYVDGVEVHNAKTKPREEQYNSTYRVVSVLTVLHQDWLNGKEYKCKVSNDALPKPIEETISKAKGQPREPQVYTLPPSRCELTKNQVSLSCAVKGFYPSDIAVEWESNGQPENNYKTTPPVLDSDGSFFLVSKLTVDKSRWQQGNVFSCSVMHEALHNHYTQKSLSLSP chain 3: DIQMTQSPSSLSASVGDRVTITCRASQDIHKYIAWYQQKPGQAPRLLIQYTSTLQPGVPSRFSGSGSGTDYTFTISSLQPEDIATYYCLQYEQLRTFGGGTKVEIKRTVAAPSVFIFPPSDEQLKSGTASVVCLLNNFYPREAKVQWKVDNALQSGNSQESVTEQDSKDSTYSLSSTLTLSKADYEKHKVYACEVTHQGLSSPVTKSFNRGEC |  |  | 26 nM | 150 nM | 0.38 nM | 0.32 nM | 1.5 nM | 19 nM
